First the molecules themselves.
B1: human monoclonal antibody 2D5 (antibody, V domains shown)
VH: QVQLVESGGGVVQPGRSLRLSCAASGFTFSSYGMHWVRQAPGKGLEWVAVIWNDGSNKYYADSVKGRFTISRDNSKNTLYLQMNSLRAEDTAVYYCARENWGEYFDYWGQGTLVTVSS
VL: AIQLTQSPSSLSASVGDRVTITCRASQGISSALAWYQQKPGKAPKLLIYDASSLKSGVPSRFSGSGSGTDFTLTISSLQPEDFATYYCQQFNSYWTFGQGTKVEIK
notes: also called HuMab 2D5
B2: human monoclonal antibody 5D5 (antibody, V domains shown)
VH: QVQLVESGGGVVQPGRSLRLSCAASGFTFSSYGMHWVRQAPGKGLEWVAVIWYDGSNKYYADSVKGRFTISRDNSKNTLYLQMNSLRAEDTAVYYCAREGNRSHYIPFAYWGQGTLVTVSS
VL: DIQMTQSPSSLSASVGDRVTITCRASQGISSWLAWYQQKPEKAPKSLIYAASSLQSGVPSRFSGSGSGTDFTLTISSLQPEDFATYYCQQYNSYPRTFGGGTKVEIK
notes: also called HuMab 5D5; 5D5-2E10
B3: human monoclonal antibody 2H4 (antibody, V domains shown)
VH: EVHLVESGGGLVQPGGSLRLSCAASGFTFSSYWMSWVRQAPGKGLEWVANINQYGSEKYYVDSVKGRFTISRDNAKNSLYLQMNSLRAEDTAVYYCARDSPYYYGSGSYYRGYWYFDLWGRGTLVTVSS
VL: B2 VL with R96P, G100Q, K103R, V104L
notes: also called HuMab 2H4

The results in this text go back to patent US20050287149A1 (Bristol-Myers Squibb, published 2005).

Where a chain is given by its changes, count along the chain named.

T2 sequence (P13423 30-764): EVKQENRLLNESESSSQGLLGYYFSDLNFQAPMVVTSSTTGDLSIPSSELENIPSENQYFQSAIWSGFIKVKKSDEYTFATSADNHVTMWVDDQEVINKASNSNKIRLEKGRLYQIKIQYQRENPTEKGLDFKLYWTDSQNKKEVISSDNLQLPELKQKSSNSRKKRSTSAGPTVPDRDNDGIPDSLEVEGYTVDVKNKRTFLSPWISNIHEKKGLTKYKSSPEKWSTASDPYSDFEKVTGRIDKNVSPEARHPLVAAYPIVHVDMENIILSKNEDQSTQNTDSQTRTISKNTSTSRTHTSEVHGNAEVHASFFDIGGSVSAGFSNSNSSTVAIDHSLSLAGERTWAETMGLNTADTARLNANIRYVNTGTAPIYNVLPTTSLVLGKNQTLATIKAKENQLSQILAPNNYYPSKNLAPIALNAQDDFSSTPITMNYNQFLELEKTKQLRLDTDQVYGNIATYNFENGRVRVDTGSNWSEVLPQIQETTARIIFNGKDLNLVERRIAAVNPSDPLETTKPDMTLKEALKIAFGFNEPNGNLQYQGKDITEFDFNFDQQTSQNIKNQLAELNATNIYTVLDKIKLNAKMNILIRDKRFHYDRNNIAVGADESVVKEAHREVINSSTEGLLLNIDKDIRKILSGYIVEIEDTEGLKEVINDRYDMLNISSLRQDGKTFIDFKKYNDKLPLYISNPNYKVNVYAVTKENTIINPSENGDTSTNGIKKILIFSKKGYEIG
T1 sequence (P13423 197-764 limits assumed): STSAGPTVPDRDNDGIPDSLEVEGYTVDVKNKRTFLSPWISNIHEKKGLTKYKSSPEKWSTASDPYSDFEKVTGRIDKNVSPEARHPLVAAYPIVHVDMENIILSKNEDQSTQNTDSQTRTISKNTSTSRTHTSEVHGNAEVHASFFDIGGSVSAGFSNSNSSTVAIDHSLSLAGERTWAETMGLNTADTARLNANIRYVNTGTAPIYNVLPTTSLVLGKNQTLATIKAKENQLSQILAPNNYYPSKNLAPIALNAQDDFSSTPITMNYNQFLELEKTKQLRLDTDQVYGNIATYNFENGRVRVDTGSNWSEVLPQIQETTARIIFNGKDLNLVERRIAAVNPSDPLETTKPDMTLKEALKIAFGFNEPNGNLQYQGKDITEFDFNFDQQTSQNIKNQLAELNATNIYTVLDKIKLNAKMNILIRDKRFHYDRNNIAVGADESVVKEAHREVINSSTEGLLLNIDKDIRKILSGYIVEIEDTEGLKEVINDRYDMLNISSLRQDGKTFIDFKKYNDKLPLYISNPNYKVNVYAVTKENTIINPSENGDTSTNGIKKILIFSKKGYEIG

One test addresses T1, Bacillus anthracis protective antigen, cleaved 63 kD form (PA63) (Bacillus anthracis, UniProt P13423 197-764).
T1 construct: also called cleaved protective antigen (63 kD); active fragment of PA
In words: ELISA, plate coated with PA63 (FIG. 11).
Consider B1, for which the binding result is “binds”.

For B2, the binding result is “binds”.

As for B3, the binding result is given as “binds”.

A further test has as its target T2, Bacillus anthracis protective antigen, full-length 83 kD form (PA83) (Bacillus anthracis, UniProt P13423 30-764).
T2 construct: mature; also called rPA-83; full length PA 83
The test is described as follows: ELISA, plate coated with PA83 (FIG. 11).
Turning to B1, the binding result was “binds”.

B2: the binding result is “binds”.

Regarding B3, the binding result is “binds”.
